Reference: the supplement of paper PMC9732359
± gives the uncertainty stated by the source.

Experiment: protein stability index of a GFP-peptide fusion (yeast GPS) (PSI 1-4); higher = more stable; sorted into four equal gates, so the index is relative within each strain
Procedure, shortened: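 The protein stability index combines read frequencies across sorting gates, each weighted by its gate number and then summed. To obtain those frequencies, a pooled yeast library of GFP fusions to tiled 17-residue yeast protein peptides, on a plasmid also expressing Cherry, was grown to mid-log phase in leucine-free medium. The cells were sorted into four equal gates by GFP/Cherry ratio before plasmid amplification by PCR and Illumina sequencing.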

Sequence	protein stability index (doa10∆)	protein stability index (pdr5∆)	protein stability index (san1∆)	protein stability index (ubr1∆)
MLASQANGGSTIISPHK [DSN1]	3.42 ± 0.17	3.43 ± 0.14	3.45 ± 0.073	3.28 ± 0.15
KSTDLTPKGNESEQELS [MTR3]	3.39 ± 0.11	2.9 ± 0.089	2.46 ± 0.089	3.21 ± 0.054
PKVSAGDSGISPEESKA [SIR4]	3.44 ± 0.1	3.46 ± 0.13	2.98 ± 0.098	3.17 ± 0.059
DVLKVNTLVRPNGTKKA [RPL25]	2.75 ± 0.087	2.91 ± 0.08	2.89 ± 0.1	3.26 ± 0.067
QDVDFYKNLDRGFSKDL [RRP6]	3.44 ± 0.13	3.75 ± 0.15	3.25 ± 0.074	3.23 ± 0.097
DKIPLNYAMTRNILHNT [SRB5]	1.82 ± 0.057	2.34 ± 0.057	1.83 ± 0.081	1.93 ± 0.035
QIIFGVVEKKTVGSSNG [RPO21]	1.66 ± 0.11	1.66 ± 0.098	1.66 ± 0.19	1.6 ± 0.066
NETSEQLVPIRLEFDQD [SNF5]	3.19 ± 0.097	3.12 ± 0.099	3.31 ± 0.11	3.29 ± 0.07
EEVMRIALMGQDNKKIY [ESC2]	2.53 ± 0.07	2.72 ± 0.12	2.2 ± 0.11	2.64 ± 0.051
VATEPLLDILVKGETRI [PRP8]	2.43 ± 0.057	2.41 ± 0.044	2.94 ± 0.06	1.8 ± 0.032
AFVPKKRKTNIIMFVGL [SRP54]	2.03 ± 0.1	2.16 ± 0.088	1.86 ± 0.18	2.26 ± 0.051
DESLIRELYKYVRKHDP [PRP28]	3.4 ± 0.14	3.48 ± 0.16	2.83 ± 0.17	3.09 ± 0.12
KEAAAIAEGKSKQDASP [RPL8B]	2.96 ± 0.1	3.35 ± 0.083	2.99 ± 0.068	3.06 ± 0.062
EKASGFEDSMQFKKLTH [PRP8]	2.81 ± 0.085	3.12 ± 0.083	2.99 ± 0.087	3.01 ± 0.084
GKLFSDIKVLKRQLIKE [YIL149C/MLP2]	3.01 ± 0.12	2.56 ± 0.08	2.59 ± 0.078	2.42 ± 0.04
SLCTVWKPNPSYDVENV [SRB5]	2.47 ± 0.097	2.03 ± 0.098	2.08 ± 0.19	1.84 ± 0.082
GGNNNNNSTGIANDNVI [SWI1]	2.87 ± 0.057	3 ± 0.053	2.94 ± 0.05	3.14 ± 0.044
EYFGGESPVDVQSQVDS [FAS1]	3.01 ± 0.14	3.38 ± 0.1	3.19 ± 0.11	3.07 ± 0.092
AVYETLISRMIFIATQL [BRR2]	1.96 ± 0.072	1.55 ± 0.058	1.29 ± 0.096	1.62 ± 0.041
EINPFLLGTMAGGAADC [PRE2]	2.88 ± 0.18	3.22 ± 0.12	2.75 ± 0.15	2.61 ± 0.15
PRRYGKGSRQCRVCSSH [RPS29A]	2.81 ± 0.055	3.01 ± 0.043	2.92 ± 0.042	2.91 ± 0.038
APSGIRMHLAPASKQGY [SSN2]	2.24 ± 0.17	2.48 ± 0.11	2.22 ± 0.13	2.36 ± 0.097
KKSKLISLYLLNLLSQN [RPN12]	1.31 ± 0.057	1.97 ± 0.062	1.26 ± 0.094	1.84 ± 0.046
LLDAGCKVVAEMIRGRS [SKP1]		2.06 ± 0.14		1.91 ± 0.1
LLDAYSHIESDSTSHNN [MED1]	2.73 ± 0.051	2.93 ± 0.048	2.6 ± 0.057	2.89 ± 0.038
ESMAYTAFQTQRTAQDR [YML031W/NDC1]	3.27 ± 0.076	3.27 ± 0.099	3.23 ± 0.067	2.85 ± 0.16
APPQTRKFQPPPGFKRK [SMB1]	3.18 ± 0.088	3.19 ± 0.1	3.17 ± 0.084	3.28 ± 0.063

Sequence	protein stability index (doa10∆)	protein stability index (pdr5∆)	protein stability index (san1∆)	protein stability index (ubr1∆)
VKESNNYYSNKSNSTGN [REC8]	2.44 ± 0.067	2.71 ± 0.085	2.56 ± 0.07	2.97 ± 0.046
NLRLLVEENRVRYTTSV [DLS1]	2.33 ± 0.071	2.65 ± 0.056	2.08 ± 0.079	2.43 ± 0.048
KKVSRRNARATRAAKIA [RPL13A]	2.25 ± 0.085	2.9 ± 0.1	2.39 ± 0.077	2.77 ± 0.045
AVSAASVVSMSNDVLKP [SIR2]	2.5 ± 0.048	3.11 ± 0.064	2.82 ± 0.063	2.75 ± 0.04
DTFRAGAFDQLKQNAIR [SRP54]	2.82 ± 0.058	2.99 ± 0.056	3.09 ± 0.053	3.09 ± 0.076
TIYYVDSDGTRLKGDIF [PRE2]	3.24 ± 0.067	3.24 ± 0.065	2.97 ± 0.096	3.16 ± 0.057
TEELQTQYATSQKTKTI [SMC2]	3.5 ± 0.24	3.19 ± 0.14	3.11 ± 0.23	3.18 ± 0.093
NYLKYLEYWCNPPYSQC [SOH1]	2.14 ± 0.052	2.25 ± 0.048	2.18 ± 0.063	2.28 ± 0.036
RPFDSFGKLLQAYQFLN [ITC1]	1.44 ± 0.047	1.58 ± 0.058	1.48 ± 0.077	1.64 ± 0.053
VAEIEKTADVKRQYVKQ [RPL20A]	3.33 ± 0.13	3.2 ± 0.088	2.94 ± 0.13	3.1 ± 0.079
IPVGDNTVVGISGDISD [PRE4]	2.98 ± 0.13	3.12 ± 0.12	2.85 ± 0.16	3.02 ± 0.12
HKMGVERSSKRLAKKPS [SIR3]	3.33 ± 0.064	3.27 ± 0.067	3.24 ± 0.043	3.15 ± 0.062
IGMSLLMRTFLYTLAQE [SIR3]	1.82 ± 0.14	2.37 ± 0.083	1.83 ± 0.1	1.76 ± 0.11
FNSVVNLSRYPKSGIDI [MTR3]	2.66 ± 0.055	2.96 ± 0.086	2.82 ± 0.079	3.03 ± 0.075
GIFNLLNTLFNPVTLNE [NUT1]	2.52 ± 0.051	1.93 ± 0.052	1.87 ± 0.075	1.92 ± 0.048
LTGEATANALPLPAVFS [RPL4A]	2.02 ± 0.052	2.36 ± 0.047	2.35 ± 0.068	2.71 ± 0.038
NIEEMARVILYLKNVLF [SIN4]	2.23 ± 0.075	2.31 ± 0.079	2.01 ± 0.11	2.05 ± 0.037
RNRDIALFQPPNFDWDL [ROX3]	3.12 ± 0.096	3.33 ± 0.12	3.17 ± 0.11	2.98 ± 0.11
NLSRYPKSGIDIFVYLT [MTR3]	2.35 ± 0.049	1.97 ± 0.052	2.07 ± 0.079	2.27 ± 0.054
STLKSFFTNPNKKRPSS [YOR098C/NUP1]	2.79 ± 0.052	3.06 ± 0.049	3.08 ± 0.043	2.91 ± 0.045
RLGGDDLRIRIKLDIVV [SNF5]	1.35 ± 0.16	1.33 ± 0.097	1.54 ± 0.13	1.29 ± 0.099
SLQDLIYKRGQAGVTKA [SMC2]	1.58 ± 0.15	1.94 ± 0.094	1.85 ± 0.15	2.3 ± 0.079
FTNVPLNLEQVTLNKYC [YJL039C/NUP192]	1.99 ± 0.047	1.99 ± 0.045	1.92 ± 0.077	2.14 ± 0.045
KLVRDSFTSATERHIQV [PRE7]	2.78 ± 0.075	2.9 ± 0.055	3.17 ± 0.055	2.37 ± 0.057
KEECQIEDDGIIESHLI [CSN9]	3.59 ± 0.25	3.23 ± 0.14	3.19 ± 0.084	3.02 ± 0.23
NQDSVKTYALESINNVV [RPN2]	3.23 ± 0.1	3.21 ± 0.1	2.95 ± 0.074	3.31 ± 0.058
KNIHISKRSKIDIINKL [YML103C/NUP188]	1.34 ± 0.17			1.49 ± 0.14
